Measured values published in paper PMC12145851.

Columns and labels:
[1] = target: phospholamban (PLN) (mouse (endogenous in mouse heart)) (UniProt P61014); assay: co-IP; PLN antibody immunoprecipitation from 3 % glyoxal-fixed (cross-linked) mouse cardiac tissue lysate (xIP group), immunoblot of co-precipitated proteins
[2] = target: phospholamban (PLN) (mouse (endogenous in mouse heart)) (UniProt P61014); assay: co-IP; PLN antibody immunoprecipitation from unfixed mouse cardiac tissue lysate (IP group), immunoblot of co-precipitated proteins

UniProt P61014, sequence (P61014 whole entry): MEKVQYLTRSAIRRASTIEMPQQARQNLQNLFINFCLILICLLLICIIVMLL

signal of co-precipitated protein (relative, %) [1]: 282%
signal of co-precipitated protein (relative, %) [2]: 100%
Substance: integrin beta-1 (ITGB1) (from UniProt P09055 21-798) (natural protein)
